One assay addresses T1, human FcγR I (human, UniProt P12314 16-288, limits assumed).
T1 construct: also called CD64
Put plainly: affinity to human Fcγ receptors; method not described.

A further assay addresses T2, human FcγR IIa R131 (human, UniProt P12318 36-218, limits assumed).
T2 sequence (looked up): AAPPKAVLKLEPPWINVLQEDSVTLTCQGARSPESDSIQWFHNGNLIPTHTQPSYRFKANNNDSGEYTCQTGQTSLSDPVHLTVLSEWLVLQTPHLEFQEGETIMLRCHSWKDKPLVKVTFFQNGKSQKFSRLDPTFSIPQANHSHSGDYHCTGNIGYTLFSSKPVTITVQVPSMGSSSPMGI
The assay is described as above.

The next assay deals with T3, human FcγR IIb (human, UniProt P31994 46-217, limits assumed).
T3 sequence (looked up): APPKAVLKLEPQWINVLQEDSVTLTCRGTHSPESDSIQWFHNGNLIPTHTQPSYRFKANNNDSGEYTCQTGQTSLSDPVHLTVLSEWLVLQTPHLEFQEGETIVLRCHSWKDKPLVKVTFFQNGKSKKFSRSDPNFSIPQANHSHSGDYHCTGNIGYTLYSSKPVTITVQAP
The description is as above.

Assay [1] has as its target T4, human ICOS on human T cells (human, UniProt Q9Y6W8 21-167).
T4 construct: endogenous receptor on primary cells; also called ICOS on CD4+ and CD8+ T cells of healthy human donors
T4 sequence: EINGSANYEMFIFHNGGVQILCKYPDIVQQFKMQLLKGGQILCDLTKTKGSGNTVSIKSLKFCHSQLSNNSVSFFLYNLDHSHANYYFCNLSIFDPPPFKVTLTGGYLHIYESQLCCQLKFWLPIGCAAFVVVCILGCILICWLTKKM
Put plainly: flow cytometry, activated human CD8 T cells, FITC MFI, mean of donors. The method, then: Binding of H2L5 hIgG4PE was assessed in both naive and activated CD3+ T cells.
(§1) Either naive and/or activated CD3+ T cells were re-suspended in PBS with 0.1% BSA (FACS Buffer) containing Human FcR Blocking Solution at 2×10⁶ cells/mL (5 μl FcR Blocking Solution+[…] FACS Buffer per 1 mL). At a concentration of 2×10⁵ cells/well, 100 μl cells were placed into 2 mL 96 well Assay Blocks and incubated at room temperature for 15 minutes. During the incubation, a titration of the binding antibodies, anti-ICOS (H2L5 hIgG4PE) or IgG4 Isotype Control antibody was prepared as a 2× concentration. […] Following the binding incubation, cells were washed twice in 1 mL of FACS buffer, centrifuging at 400×g for 5 minutes at room temperature.
(§2) Data acquisition and compensation were performed on BD FACS instruments, LSR Fortessa X-20 or FACS Canto II using BD Diva (ver. 8.0) software. Data analysis employed Flow Jo software (ver.10.0.8r1). Results are reported as both MFI (Median Fluorescence Intensity) and Percent of cells positive for human IgG kappa light chain FITC staining out of the total live cells or appropriate parent population. EC50s were determined using Graphpad Prism 5 software (ver. 5.04) with non-linear regression of transformed data (X=(log(X)) using a variable slope with 4 parameters (log(Agonist) vs. response—Variable slope).

The target in assay [2] is T4, human ICOS on human T cells. Put plainly: flow cytometry, activated human CD8 T cells, FITC MFI, median of donors. The method, then:
as §1, §2
(In general: In flow cytometry, cells or beads pass a laser one at a time.)

The target is the same in assay [3]. Put plainly: flow cytometry, activated human CD8 T cells, percent FITC positive, donor 2100M39. The method, then: as §1, §2
For the next assay, the target named is T5, Human ICOS -Fc (human; rabbit, UniProt Q9Y6W8 21-140).
T5 construct: analyte in the BIAcore T200 run; also called Human ICOS (rabbit Fc); not shown: rabbit Fc
T5 sequence: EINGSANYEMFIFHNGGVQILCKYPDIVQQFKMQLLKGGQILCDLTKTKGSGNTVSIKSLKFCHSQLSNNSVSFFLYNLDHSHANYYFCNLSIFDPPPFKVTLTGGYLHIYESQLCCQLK
Put plainly: SPR, BIAcore T200; antibody captured on anti-human IgG (CM5), ICOS (rabbit Fc) as analyte at 1-256 nM, 25°C, 1:1 model. The method, then: (§3) The binding kinetics affinity of the humanized H2L5 hIgG4PE antibody was determined used the BIAcore T200 Anti-human IgG on Fc2 of a CM5 chip Anti-ICOS H2L5 hIgG4PE captured on the surface. Anti-human IgG surface blocked with […] hIgG1 control to prevent non-specific binding of rabbit Fc. Human and cyno ICOS (rabbit Fc) passed over the captured antibodies at 256 nM, 64 nM, 16 nM, 4 nM and 1 nM. Buffer alone was used to double reference binding curves. MgCl₂ was used to regenerate surface. Run carried out at 25° C. Data fitted to 1:1 model using T200 evaluation software. Antibody concentration: 2.5 μg/mL
(§4) The ICOS binding data was fitted to a 1:1 kinetics model using the T200 data analysis software.
(In general: SPR reads the build-up and loss of mass on a sensor chip optically.)

In another assay the target is T6, Cyno ICOS-Fc (cynomolgus; rabbit, UniProt A0A2K5TQR6 21-140).
T6 construct: analyte in the BIAcore T200 run; also called cyno ICOS (rabbit Fc); cynomolgus ICOS; not shown: Rabbit Fc and any linker
T6 sequence: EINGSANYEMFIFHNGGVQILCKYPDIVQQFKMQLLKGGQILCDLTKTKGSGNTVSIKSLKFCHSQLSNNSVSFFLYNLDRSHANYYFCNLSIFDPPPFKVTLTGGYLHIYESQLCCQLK
The description is as above. The method, then: as §3, §4

T1 sequence (P12314 16-288 limits assumed): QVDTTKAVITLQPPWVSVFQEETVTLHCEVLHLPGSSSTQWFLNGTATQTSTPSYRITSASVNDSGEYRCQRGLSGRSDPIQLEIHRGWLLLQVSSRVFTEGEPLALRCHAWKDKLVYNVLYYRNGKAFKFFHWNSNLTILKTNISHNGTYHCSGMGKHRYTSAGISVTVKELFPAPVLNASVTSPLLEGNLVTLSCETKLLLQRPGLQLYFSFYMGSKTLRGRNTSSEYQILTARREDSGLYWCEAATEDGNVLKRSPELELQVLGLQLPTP

B1: H2L5 hIgG4PE (antibody)
heavy: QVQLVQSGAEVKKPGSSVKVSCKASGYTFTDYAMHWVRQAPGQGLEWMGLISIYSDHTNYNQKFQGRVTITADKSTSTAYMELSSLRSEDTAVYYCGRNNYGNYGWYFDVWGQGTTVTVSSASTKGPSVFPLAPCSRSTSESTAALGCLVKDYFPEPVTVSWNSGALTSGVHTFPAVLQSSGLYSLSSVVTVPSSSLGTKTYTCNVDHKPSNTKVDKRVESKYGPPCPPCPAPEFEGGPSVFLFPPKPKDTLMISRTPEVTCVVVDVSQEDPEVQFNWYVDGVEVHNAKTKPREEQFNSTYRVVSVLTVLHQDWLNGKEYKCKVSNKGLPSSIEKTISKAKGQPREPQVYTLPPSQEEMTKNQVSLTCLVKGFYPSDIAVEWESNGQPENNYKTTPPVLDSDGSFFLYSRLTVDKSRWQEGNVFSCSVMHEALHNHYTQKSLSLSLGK
light: EIVLTQSPATLSLSPGERATLSCSASSSVSYMHWYQQKPGQAPRLLIYDTSKLASGIPARFSGSGSGTDYTLTISSLEPEDFAVYYCFQGSGYPYTFGQGTKLEIKRTVAAPSVFIFPPSDEQLKSGTASVVCLLNNFYPREAKVQWKVDNALQSGNSQESVTEQDSKDSTYSLSSTLTLSKADYEKHKVYACEVTHQGLSSPVTKSFNRGEC
notes: also called 422 H2L5 hIgG4PE; H2L5 IgG4PE; copies: 2 + 2
On to B1, for which the Kd came to 645 nM in the assay with human FcγR I; 2500 nM with human FcγR IIa R131; 1470 nM with human FcγR IIb; 1.34 nM in the assay with Human ICOS -Fc; 0.949 nM with Cyno ICOS-Fc. Besides, the EC50 in assay [1] came to 0.525 µg/mL; in assay [2], 0.652 µg/mL; in assay [3], 1.23 µg/mL. For the same molecule, the koff with Human ICOS -Fc was 0.000396 s⁻¹; with Cyno ICOS-Fc, 0.000371 s⁻¹. For the same molecule, the kon is 297000 M⁻¹ s⁻¹ with Human ICOS -Fc and 391000 M⁻¹ s⁻¹ in the assay with Cyno ICOS-Fc.

For orientation: Kd means the constant that tells how readily two partners part at equilibrium. High values mean lower affinity, low ones higher affinity. Usually EC50 stands for the concentration at which the effect is half-maximal. High values mean weaker potency, low ones greater potency. The koff is the first-order rate constant of dissociation. One may read the kon as the rate constant with which the complex forms. Lower therefore signals slow association.

For the origin of these results see patent US20200140551A1 (GlaxoSmithKline, published 2020).
